Laboratory results from the supplement of paper PMC9170038.

System: MS2 coat protein
Assay: apparent KD of MS2 coat protein; designed switch direction (-1 OFF switch, 1 ON switch): 1; higher = weaker reporter binding
Summary of the method: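 The reported apparent KD is a per-design median over clusters, from curve fits of normalised cluster fluorescence. Protein titrations used SNAP-549-labelled MS2 coat protein, doubled from 0.7 or 1.5 nM to 3 µM, in Tris-HCl pH 7.5 buffer with KCl, MgCl2, BSA, DTT, tRNA and Tween-20, with no input, 200 uM small-molecule ligand, or an oligonucleotide input. The RNA switches were transcribed on Illumina chips by stalled E. coli RNA polymerase.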

[1] = input ligand: microRNA oligo, concentration not stated
[2] = Eterna round: R95, input ligand: FMN 200 uM
[3] = Eterna round: R95, input ligand: microRNA oligo, concentration not stated
[4] = Eterna round: R95, input ligand: none

AGGCUCAGAGCAGGAUAUAUGCGAUCACAUGAGGAUCACCCAUGUCUCGAGCUUCGGCUCGAGGCAUAGAAGGGCUCUGAGCCA [SSNG2/4-B1] (Eterna round: R96, puzzle: Same State NG 2)
apparent KD of MS2 coat protein (input ligand: FMN 200 uM): 18.9 nM
apparent KD of MS2 coat protein [1]: 28.6 nM
apparent KD of MS2 coat protein (input ligand: none): 51.8 nM

AUAUGAGAAGCAGGAUAUGUGGAGAAGAAACAAACAGAAGGGCUUAUGGGACAACAUGAGGAUCACCCAUGUUCUCUGUGAUGA [ssng1 a] (Eterna round: R96, puzzle: Same State NG 1)
apparent KD of MS2 coat protein (input ligand: FMN 200 uM): 47.9 nM
apparent KD of MS2 coat protein [1]: 137 nM
apparent KD of MS2 coat protein (input ligand: none): 240 nM

CCAUAACGGUGAGGAUAUUGUUGCGAUAAGUGACGAGAAGGCAUUCAUGUGAAAUAAACAUACAUGAGGAUCACCCAUGUUGUA [Omei SS(NG)1 Bv3] (Eterna round: R96, puzzle: Same State NG 1)
apparent KD of MS2 coat protein (input ligand: FMN 200 uM): 22.6 nM
apparent KD of MS2 coat protein [1]: 40.8 nM
apparent KD of MS2 coat protein (input ligand: none): 50.2 nM

AUUGCUUACGCAGGAUAUGAUGCGAAAAUUGCGUCAGAAGGGUGAAAAGAAUCGUUGCAAGAAGACAUGAGGAUCACCCAUGUC [SameState NG1 #94] (Eterna round: R96, puzzle: Same State NG 1)
apparent KD of MS2 coat protein (input ligand: FMN 200 uM): 29.9 nM
apparent KD of MS2 coat protein [1]: 28.2 nM
apparent KD of MS2 coat protein (input ligand: none): 59.8 nM

GGAGCCGGCACCGAGGAUAUUCAUAUUAAAACAUGAGGAUCACCCAUGUACAGGAGAACCUGUUGGGAGAAGGCGGAUCGGCUCG [Xeonanis - 25] (puzzle: Same State 2)
apparent KD of MS2 coat protein [2]: 29.9 nM
apparent KD of MS2 coat protein [3]: 296 nM
apparent KD of MS2 coat protein [4]: 437 nM

UCAAUCAUGUAAGGAUAUGCAGCCGAAACGGCUGCAGAAGGUACUAUAAUUACAUGAGGAUCACCCAUGUUAUAAAAUUUAAAU [Mat - Same State NG 1 - JL mod - D68] (Eterna round: R96, puzzle: Same State NG 1)
apparent KD of MS2 coat protein (input ligand: FMN 200 uM): 35.5 nM
apparent KD of MS2 coat protein [1]: 46 nM
apparent KD of MS2 coat protein (input ligand: none): 123 nM

CUGAGCGAUCAAGGAUAUCACGUCGAAUAGACGUGAGAAGGUGAUAAUUACAUGAGGAUCACCCAUGUAUAACAUGAAGCUCAG [SSNG1/9-A1] (Eterna round: R96, puzzle: Same State NG 1)
apparent KD of MS2 coat protein (input ligand: FMN 200 uM): 16.6 nM
apparent KD of MS2 coat protein [1]: 15.6 nM
apparent KD of MS2 coat protein (input ligand: none): 22.4 nM

UGUUGUAUUACAGGAUAUCUAGUAUUUUUAUGUAGAGAAGGGUAUUCACAUGAGGAUCACCCAUGUAUAUACGAGGAAGUUGUG [JMF's solution 52] (Eterna round: R96, puzzle: Same State NG 1)
apparent KD of MS2 coat protein [1]: 28.9 nM

CGUCCAGCCUGAGCUGGACAAAAGCAUGUACAUGAGGAUCACCCAUGUUCAUGUACAAGCUUUUUGCUCGUCUUAUG [salish99_208a_r3_054] (Eterna round: R96, puzzle: Sensor for hsa-mir-208a)
apparent KD of MS2 coat protein (input ligand: FMN 200 uM): 485 nM
apparent KD of MS2 coat protein [1]: 16.4 nM
apparent KD of MS2 coat protein (input ligand: none): 607 nM

AAUUAAGAUUAAGGAUAUCACGUCGAUUAGACGUGAGAAGGUGAUCAUAACAUGAGGAUCACCCAUGUAUUACAUGAAUUAAUU [SSNG1/3-B2] (Eterna round: R96, puzzle: Same State NG 1)
apparent KD of MS2 coat protein (input ligand: FMN 200 uM): 132 nM
apparent KD of MS2 coat protein [1]: 113 nM
apparent KD of MS2 coat protein (input ligand: none): 118 nM

AAAAAACAUGAGGAUCACCCAUGUCAAAAGACUCGAGGAUAUGGGCAAAUAAAAUAAGAACCAGAAGGCGAGAAAA [salish99_ss1_r3_101] (puzzle: Same State 1)
apparent KD of MS2 coat protein [2]: 20 nM
apparent KD of MS2 coat protein [3]: 36.3 nM
apparent KD of MS2 coat protein [4]: 31.7 nM

UGGUACAUGGGAGGAUAUCCUCAGGAGACAUGAGGAUCACCCAUGUAUUAUAAGCCGAAAGGCAUGGAGAAGGCCCAUGUACCU [JL SSNG1 3.82] (Eterna round: R96, puzzle: Same State NG 2)
apparent KD of MS2 coat protein (input ligand: FMN 200 uM): 14.1 nM
apparent KD of MS2 coat protein [1]: 112 nM
apparent KD of MS2 coat protein (input ligand: none): 123 nM

GAGUAUGAACUACAGGAUAUAUAGCAGAUGACAUGAGGAUCACCCAUGUAAGAGAAAGGAGGGAAAUAGAAGGGUAUGGGAGGUG [JR_SS2_Sub036] (puzzle: Same State 2)
apparent KD of MS2 coat protein [2]: 37.6 nM
apparent KD of MS2 coat protein [3]: 33.9 nM
apparent KD of MS2 coat protein [4]: 31.4 nM

UGCUUCAUGUAAGGAUAUGCAGCCGUUUCGGCUGCAGAAGGUACUAUAAUACAUGAGGAUCACCCAUGUCUCUCGCAUUGCGGG [salish99_SSng1_r04_302] (Eterna round: R96, puzzle: Same State NG 1)
apparent KD of MS2 coat protein (input ligand: FMN 200 uM): 91 nM
apparent KD of MS2 coat protein [1]: 118 nM
apparent KD of MS2 coat protein (input ligand: none): 184 nM

UUUUUUAUCGUAGGAUAUAGGUUGAAUAAUAGACUAGAAGGACGUGACAUGAGGAUCACCCAUGUUUUUUAAGUGUCGAAGUGU [JR_SSNG1_Sub039] (Eterna round: R96, puzzle: Same State NG 1)
apparent KD of MS2 coat protein [1]: 19.6 nM

AUUUAACAAGCUUUUUGCUCGUCUUAUAAACAUGAGGAUCACCCAUGUAAUAGCGUGAGAGUAAAUAAAUAAAUAAU [JMF 82] (puzzle: Sensor for hsa-mir-208a)
apparent KD of MS2 coat protein [2]: 17.1 nM
apparent KD of MS2 coat protein [3]: 42.7 nM
apparent KD of MS2 coat protein [4]: 14.2 nM

AAACCACAUGAGGAUCACCCAUGUCAAGAGAGACUAGGAUAUCUGAAUUAAUUAAAUUAAGGAGAAGGAGUGAAAA [71%, Same state of confusion2, 3] (Eterna round: R96, puzzle: Same State 1)
apparent KD of MS2 coat protein (input ligand: FMN 200 uM): 57.4 nM
apparent KD of MS2 coat protein [1]: 100 nM
apparent KD of MS2 coat protein (input ligand: none): 131 nM

GCGGACUUCACAUGAGGAUCACCCAUGUUGCGGAGACGCAAUGAGGAUAUCGAUGGGUUUCCCGUCGAGAAGGCAUAAAUCCGC [JL SSNG3 3.93 mod 5] (Eterna round: R96, puzzle: Same State NG 3)
apparent KD of MS2 coat protein (input ligand: FMN 200 uM): 25.2 nM
apparent KD of MS2 coat protein [1]: 30 nM
apparent KD of MS2 coat protein (input ligand: none): 49.8 nM

GUAAUAAAGGAAGGAUAUGGGUAAACGGGAAUCCCAGAAGGUCCACAUGAGGAUCACCCAUGUGGUCCCGAAACCAAGGGACCG [Cetibiza] (Eterna round: R96, puzzle: Same State NG 1)
apparent KD of MS2 coat protein (input ligand: FMN 200 uM): 53.1 nM
apparent KD of MS2 coat protein [1]: 19.3 nM
apparent KD of MS2 coat protein (input ligand: none): 48.7 nM

GUUACAUGAGGAUCACCCAUGUAUGUGUGGGAGUAAGUGUCUUAGGAUAUCUGUUUUUUAAUUUAAGAGAAGGAAGAUUGUUGU [JMF's solution 33] (Eterna round: R96, puzzle: Same State NG 3)
apparent KD of MS2 coat protein (input ligand: FMN 200 uM): 105 nM
apparent KD of MS2 coat protein [1]: 59.6 nM
apparent KD of MS2 coat protein (input ligand: none): 112 nM

CGUCCGGCCUGUGCUGGCCGGUAUCAUGUACAUGAGGAUCACCCAUGUUCAUGUGCAGGCUUUUUGCUCGUCUUGUG [salish99_mir208a_012] (puzzle: Sensor for hsa-mir-208a)
apparent KD of MS2 coat protein [2]: 20.5 nM
apparent KD of MS2 coat protein [3]: 12.8 nM
apparent KD of MS2 coat protein [4]: 19.9 nM

GAGAGAGGGUGAGGAUAUUUAGUGAUAAUGAUAAGAGAAGGCACAGACAUGAGGAUCACCCAUGUGGGAAUAAUCCAGAGAGAG [Parity 8 - Jieux - Same State NG 1] (Eterna round: R96, puzzle: Same State NG 1)
apparent KD of MS2 coat protein [1]: 167 nM

GCGAGCGUACUUGCUACAUGAGGAUCACCCAUGUUUCAUGGACAGGAUAUGGUACCGUUUCGGUACCAGAAGGGUUCACAUGUA [JL SSNG3 3.80] (Eterna round: R96, puzzle: Same State NG 3)
apparent KD of MS2 coat protein (input ligand: FMN 200 uM): 155 nM
apparent KD of MS2 coat protein [1]: 98.8 nM
apparent KD of MS2 coat protein (input ligand: none): 315 nM

ACAUGAGAUUGAGGAUAUAUAGUACCUACAUGUGACAUGAGGAUCACCCAUGUGGUAAGUAUGACAUAGAAGGCAAAGAUAUGU [Equivalance 99 - Jieux - Same State NG 2] (Eterna round: R96, puzzle: Same State NG 2)
apparent KD of MS2 coat protein (input ligand: FMN 200 uM): 35 nM
apparent KD of MS2 coat protein [1]: 37.6 nM
apparent KD of MS2 coat protein (input ligand: none): 50.6 nM

AAGGAAUGAGCGUAGGAUAUAGGAGAAGUGACAUGAGGAUCACCCAUGUAAAAGGAGGGAUGAGACUAGAAGGACGAGGUAGGAG [JR_SS2_Sub058] (puzzle: Same State 2)
apparent KD of MS2 coat protein [2]: 57.9 nM
apparent KD of MS2 coat protein [3]: 53.3 nM
apparent KD of MS2 coat protein [4]: 81.8 nM

GUGGUCAGACAUGAGGAUCACCCAUGUGGAAUAAAUAAGGGUUAGGAUAUCUAAUAUAGGAUAUAAGAGAAGGGAUGGUUGGUG (Eterna round: R96, puzzle: Same State NG 3)
apparent KD of MS2 coat protein (input ligand: FMN 200 uM): 118 nM
apparent KD of MS2 coat protein [1]: 64.8 nM
apparent KD of MS2 coat protein (input ligand: none): 96.2 nM

GUUACAUGAGGAUCACCCAUGUAUGUGUGGGAGUAAGUGUCUUAGGAUAUCUGUUAUUUAAUUUCAGAGAAGGAAGAUUGUUGU [JMF's solution 48] (Eterna round: R96, puzzle: Same State NG 3)
apparent KD of MS2 coat protein (input ligand: FMN 200 uM): 125 nM
apparent KD of MS2 coat protein [1]: 91.2 nM
apparent KD of MS2 coat protein (input ligand: none): 105 nM

CUGAGCGAUUAAGGAUAUCACGUCGAUUAGACGUGAGAAGGUGAUCAUAACAUGAGGAUCACCCAUGUAUUACAUGAAGCUCAG [SSNG1/3-A2] (Eterna round: R96, puzzle: Same State NG 1)
apparent KD of MS2 coat protein (input ligand: FMN 200 uM): 312 nM
apparent KD of MS2 coat protein [1]: 36.8 nM
apparent KD of MS2 coat protein (input ligand: none): 128 nM

GACAAUUGACAUGAGGAUCACCCAUGUAUUACUUCGUGUUUUUGCUCGUCUUAUGUUAGGUUCGAAAGGAGCUUAAC [Polished] (puzzle: Sensor for hsa-mir-208a version 2)
apparent KD of MS2 coat protein [2]: 68.6 nM
apparent KD of MS2 coat protein [3]: 16.2 nM
apparent KD of MS2 coat protein [4]: 86.7 nM

GCUCCAAACACAGGAUAUGGAAUCUGAUUCAUGCGAGUGACAUGAGGAUCACCCAUGUCCGGCAGCCAGAAGGGUGGGAAACAU [Eternabot solution 27] (Eterna round: R96, puzzle: Same State NG 2)
apparent KD of MS2 coat protein (input ligand: FMN 200 uM): 184 nM
apparent KD of MS2 coat protein [1]: 151 nM
apparent KD of MS2 coat protein (input ligand: none): 201 nM

GUGGUCAGACAUGAGGAUCACCCAUGUGGAAUAAAUAAGGGUCAGGAUAUGAAAUAUAGGAUAUAUCAGAAGGGAUGGUUGGUG (Eterna round: R96, puzzle: Same State NG 3)
apparent KD of MS2 coat protein (input ligand: FMN 200 uM): 101 nM
apparent KD of MS2 coat protein [1]: 81.1 nM
apparent KD of MS2 coat protein (input ligand: none): 90.5 nM
